From paper PMC2119460

Target: H-2Db class I MHC molecule on the surface of RMA-S cells (mouse (endogenous in RMA-S))

Substance influenza NP (365-380) peptide has a fold increase in H-2Db reactivity (mAb 28.14.8) after peptide treatment of 2 fold.
